In patent publication US20260242735A1 (UNIVERSIT T BASEL, published 2026):

Columns and labels:
Test in all cases: flow cytometry, alanine scan
human CD33 A329S = human CD33 A329S (human, UniProt P20138 18-364)
Description: (§1) An alanine scan on human CD33 was performed to the determine the residues on CD33 that are involved in binding to the antibodies investigated. […] Briefly, a mutation library of CD33 was created by high-throughput, site-directed mutagenesis. Each residue was individually mutated to alanine, with alanine codons mutated to serine. The mutant library was arrayed in 384-well microplates and transiently transfected into HEK293-T. Following transfection, cells were incubated with the indicated antibodies (IgG or Fab) at concentrations pre-determined using an independent immunofluorescence titration curve on wild type CD33. […] Binding of each antibody to each mutant clone was determined in duplicates. For each point, background fluorescence was subtracted from the raw data, which were then normalized to antibody reactivity with wild type CD33.
(§2) Critical residues for antibody binding (outlined in dark grey) were residues whose mutations led to a binding of the test Abs of less than 20%. Additional secondary residues (outlined in light grey) were identified that led to a binding of the test Abs of between 20 and 40% as compared to the wild type CD33.

human CD33 L343A = human CD33 L343A (human, UniProt P20138 18-364)
Description: as §1, §2

human CD33 M348A = human CD33 M348A (human, UniProt P20138 18-364)
Description: as §1, §2

human CD33 H346A = human CD33 H346A (human, UniProt P20138 18-364)
Description: as §1, §2

human CD33 S324A = human CD33 S324A (human, UniProt P20138 18-364)
Description: as §1, §2

human CD33 S326A = human CD33 S326A (human, UniProt P20138 18-364)
Description: as §1, §2

human CD33 S323A = human CD33 S323A (human, UniProt P20138 18-364)
Description: as §1, §2

human CD33 P350A = human CD33 P350A (human, UniProt P20138 18-364)
Description: as §1, §2

human CD33 E360A = human CD33 E360A (human, UniProt P20138 18-364)
human CD33 E360A, sequence (P20138 18-364 E360A limits assumed): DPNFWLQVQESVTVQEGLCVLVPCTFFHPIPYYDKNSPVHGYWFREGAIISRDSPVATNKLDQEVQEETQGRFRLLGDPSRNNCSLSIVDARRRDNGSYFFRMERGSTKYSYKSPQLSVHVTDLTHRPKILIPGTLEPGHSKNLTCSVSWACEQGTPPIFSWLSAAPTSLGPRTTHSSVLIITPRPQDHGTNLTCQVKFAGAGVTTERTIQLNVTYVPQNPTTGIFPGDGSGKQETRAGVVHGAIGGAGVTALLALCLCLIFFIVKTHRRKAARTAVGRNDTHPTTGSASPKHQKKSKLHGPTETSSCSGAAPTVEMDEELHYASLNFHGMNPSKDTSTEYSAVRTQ
Description: as §1, §2

human CD33 N349A = human CD33 N349A (human, UniProt P20138 18-364)
Description: as §1, §2

human CD33 S359A = human CD33 S359A (human, UniProt P20138 18-364)
Description: as §1, §2

human CD33 V332A = human CD33 V332A (human, UniProt P20138 18-364)
Description: as §1, §2

human CD33 H339A = human CD33 H339A (human, UniProt P20138 18-364)
Description: as §1, §2

human CD33 F345A = human CD33 F345A (human, UniProt P20138 18-364)
Description: as §1, §2

human CD33 E336A = human CD33 E336A (human, UniProt P20138 18-364)
Description: as §1, §2

human CD33 T322A = human CD33 T322A (human, UniProt P20138 18-364)
human CD33 T322A, sequence (P20138 18-364 T322A limits assumed): as the sequence (P20138 18-364 E360A limits assumed) above, with T305A, A343E counted along it
Description: as §1, §2

human CD33 C325A = human CD33 C325A (human, UniProt P20138 18-364)
Description: as §1, §2

human CD33 G347A = human CD33 G347A (human, UniProt P20138 18-364)
Description: as §1, §2

human CD33 T356A = human CD33 T356A (human, UniProt P20138 18-364)
human CD33 T356A, sequence (P20138 18-364 T356A limits assumed): as the sequence (P20138 18-364 E360A limits assumed) above, with T339A, A343E counted along it
Description: as §1, §2

human CD33 N344A = human CD33 N344A (human, UniProt P20138 18-364)
human CD33 N344A, sequence (P20138 18-364 N344A limits assumed): as the sequence (P20138 18-364 E360A limits assumed) above, with N327A, A343E counted along it
Description: as §1, §2

human CD33 G318A = human CD33 G318A (human, UniProt P20138 18-364)
human CD33 G318A, sequence (P20138 18-364 G318A limits assumed): as the sequence (P20138 18-364 E360A limits assumed) above, with G301A, A343E counted along it
Description: as §1, §2

human CD33 L338A = human CD33 L338A (human, UniProt P20138 18-364)
human CD33 L338A, sequence (P20138 18-364 L338A limits assumed): as the sequence (P20138 18-364 E360A limits assumed) above, with L321A, A343E counted along it
Description: as §1, §2

human CD33 A341S = human CD33 A341S (human, UniProt P20138 18-364)
Description: as §1, §2

human CD33 V361A = human CD33 V361A (human, UniProt P20138 18-364)
human CD33 V361A, sequence (P20138 18-364 V361A limits assumed): as the sequence (P20138 18-364 E360A limits assumed) above, with A343E, V344A counted along it
Description: as §1, §2

human CD33 M334A = human CD33 M334A (human, UniProt P20138 18-364)
human CD33 M334A, sequence (P20138 18-364 M334A limits assumed): as the sequence (P20138 18-364 E360A limits assumed) above, with M317A, A343E counted along it
Description: as §1, §2

human CD33 S355A = human CD33 S355A (human, UniProt P20138 18-364)
human CD33 S355A, sequence (P20138 18-364 S355A limits assumed): as the sequence (P20138 18-364 E360A limits assumed) above, with S338A, A343E counted along it
Description: as §1, §2

human CD33 S351A = human CD33 S351A (human, UniProt P20138 18-364)
Description: as §1, §2

human CD33 Y340A = human CD33 Y340A (human, UniProt P20138 18-364)
Description: as §1, §2

human CD33 P319A = human CD33 P319A (human, UniProt P20138 18-364)
Description: as §1, §2

human CD33 T363A = human CD33 T363A (human, UniProt P20138 18-364)
Description: as §1, §2

human CD33 D353A = human CD33 D353A (human, UniProt P20138 18-364)
Description: as §1, §2

human CD33 G327A = human CD33 G327A (human, UniProt P20138 18-364)
Description: as §1, §2

human CD33 E357A = human CD33 E357A (human, UniProt P20138 18-364)
Description: as §1, §2

human CD33 T331A = human CD33 T331A (human, UniProt P20138 18-364)
human CD33 T331A, sequence (P20138 18-364 T331A limits assumed): as the sequence (P20138 18-364 E360A limits assumed) above, with T314A, A343E counted along it
Description: as §1, §2

human CD33 E337A = human CD33 E337A (human, UniProt P20138 18-364)
Description: as §1, §2

human CD33 A328S = human CD33 A328S (human, UniProt P20138 18-364)
Description: as §1, §2

human CD33 D335A = human CD33 D335A (human, UniProt P20138 18-364)
Description: as §1, §2

human CD33 P330A = human CD33 P330A (human, UniProt P20138 18-364)
Description: as §1, §2

human CD33 R362A = human CD33 R362A (human, UniProt P20138 18-364)
Description: as §1, §2

human CD33 Q364A = human CD33 Q364A (human, UniProt P20138 18-363)
human CD33 Q364A, sequence (P20138 18-364 Q364A limits assumed): as the sequence (P20138 18-364 E360A limits assumed) above, with A343E, Q347A counted along it
Description: as §1, §2

human CD33 E321A = human CD33 E321A (human, UniProt P20138 18-364)
Description: as §1, §2

human CD33 K352A = human CD33 K352A (human, UniProt P20138 18-364)
human CD33 K352A, sequence (P20138 18-364 K352A limits assumed): as the sequence (P20138 18-364 E360A limits assumed) above, with K335A, A343E counted along it
Description: as §1, §2

human CD33 Y358A = human CD33 Y358A (human, UniProt P20138 18-364)
Description: as §1, §2

human CD33 T320A = human CD33 T320A (human, UniProt P20138 18-364)
Description: as §1, §2

human CD33 T354A = human CD33 T354A (human, UniProt P20138 18-364)
Description: as §1, §2

human CD33 S342A = human CD33 S342A (human, UniProt P20138 18-364)
Description: as §1, §2

human CD33 E333A = human CD33 E333A (human, UniProt P20138 18-364)
Description: as §1, §2

human CD33 A329S, sequence (P20138 18-364 A329S limits assumed): as the sequence (P20138 18-364 E360A limits assumed) above, with A312S, A343E counted along it
human CD33 S324A, sequence (P20138 18-364 S324A limits assumed): as the sequence (P20138 18-364 E360A limits assumed) above, with S307A, A343E counted along it

B1: Refmab #1 (antibody, V domains shown)
VH: EVQLVQSGAEVKKPGSSVKVSCKASGYTITDSNIHWVRQAPGQSLEWIGYIYPYNGGTDYNQKFKNRATLTVDNPTNTAYMELSSLRSEDTAFYYCVNGNPWLAYWGQGTLVTVSS
VL: DIQLTQSPSTLSASVGDRVTITCRASESLDNYGIRFLTWFQQKPGKAPKLLMYAASNQGSGVPSRFSGSGSGTEFTLTISSLQPDDFATYYCQQTKEVPWSFGQGTKVEVK
notes: The alanine scan used IgG or Fab; also called hP67.6
Human CD33 A329S
  Mean % WT Binding: 88.1 % of WT
Human CD33 L343A
  Mean % WT Binding: 88.5 % of WT
Human CD33 M348A
  Mean % WT Binding: 83.3 % of WT
Human CD33 H346A
  Mean % WT Binding: 81.8 % of WT
Human CD33 S324A
  Mean % WT Binding: 97.8 % of WT
Human CD33 S326A
  Mean % WT Binding: 85.6 % of WT
Human CD33 S323A
  Mean % WT Binding: 95.2 % of WT
Human CD33 P350A
  Mean % WT Binding: 99 % of WT
Human CD33 E360A
  Mean % WT Binding: 73.7 % of WT
Human CD33 N349A
  Mean % WT Binding: 92.3 % of WT
Human CD33 S359A
  Mean % WT Binding: 95.8 % of WT
Human CD33 V332A
  Mean % WT Binding: 107 % of WT
Human CD33 H339A
  Mean % WT Binding: 76.7 % of WT
Human CD33 F345A
  Mean % WT Binding: 97.8 % of WT
Human CD33 E336A
  Mean % WT Binding: 82.8 % of WT
Human CD33 T322A
  Mean % WT Binding: 104 % of WT
Human CD33 C325A
  Mean % WT Binding: 80.1 % of WT
Human CD33 G347A
  Mean % WT Binding: 85.1 % of WT
Human CD33 T356A
  Mean % WT Binding: 93.5 % of WT
Human CD33 N344A
  Mean % WT Binding: 72.1 % of WT
Human CD33 G318A
  Mean % WT Binding: 98.5 % of WT
Human CD33 L338A
  Mean % WT Binding: 83.1 % of WT
Human CD33 A341S
  Mean % WT Binding: 86.8 % of WT
Human CD33 V361A
  Mean % WT Binding: 88.8 % of WT
Human CD33 M334A
  Mean % WT Binding: 94.6 % of WT
Human CD33 S355A
  Mean % WT Binding: 86.1 % of WT
Human CD33 S351A
  Mean % WT Binding: 102 % of WT
Human CD33 Y340A
  Mean % WT Binding: 91.1 % of WT
Human CD33 P319A
  Mean % WT Binding: 83.9 % of WT
Human CD33 T363A
  Mean % WT Binding: 91.4 % of WT
Human CD33 D353A
  Mean % WT Binding: 94.7 % of WT
Human CD33 G327A
  Mean % WT Binding: 88 % of WT
Human CD33 E357A
  Mean % WT Binding: 98.7 % of WT
Human CD33 T331A
  Mean % WT Binding: 87.4 % of WT
Human CD33 E337A
  Mean % WT Binding: 91.1 % of WT
Human CD33 A328S
  Mean % WT Binding: 86.5 % of WT
Human CD33 D335A
  Mean % WT Binding: 77.8 % of WT
Human CD33 P330A
  Mean % WT Binding: 98.6 % of WT
Human CD33 R362A
  Mean % WT Binding: 104 % of WT
Human CD33 Q364A
  Mean % WT Binding: 72 % of WT
Human CD33 E321A
  Mean % WT Binding: 88.3 % of WT
Human CD33 K352A
  Mean % WT Binding: 95.3 % of WT
Human CD33 Y358A
  Mean % WT Binding: 76.1 % of WT
Human CD33 T320A
  Mean % WT Binding: 98.5 % of WT
Human CD33 T354A
  Mean % WT Binding: 91.8 % of WT
Human CD33 S342A
  Mean % WT Binding: 79.5 % of WT
Human CD33 E333A
  Mean % WT Binding: 77.9 % of WT

B2: Refmab #2 (antibody, V domains shown)
VH: QVQLVQSGAEVKKPGSSVKVSCKASGGTFSDYAISWVRQAPGQGLEWMGRIIPILGVADYAQKFQGRVTITADKSTRTAYMELSSLRSEDTAVYYCARNWADAFDIWGQGTMVTVSS
VL: DIQLTQSPSSLSASVGDRVTITCRASQGISSVLAWYQQKPGKAPKLLIYDASSLESGVPSRFSGSGSGTDFTLTISSLQPEDFATYYCQQFDSSITFGQGTKLEIK
notes: The alanine scan used IgG or Fab
Human CD33 A329S
  Mean % WT Binding: 116 % of WT
Human CD33 L343A
  Mean % WT Binding: 111 % of WT
Human CD33 M348A
  Mean % WT Binding: 115 % of WT
Human CD33 H346A
  Mean % WT Binding: 118 % of WT
Human CD33 S324A
  Mean % WT Binding: 106 % of WT
Human CD33 S326A
  Mean % WT Binding: 109 % of WT
Human CD33 S323A
  Mean % WT Binding: 119 % of WT
Human CD33 P350A
  Mean % WT Binding: 117 % of WT
Human CD33 E360A
  Mean % WT Binding: 101 % of WT
Human CD33 N349A
  Mean % WT Binding: 110 % of WT
Human CD33 S359A
  Mean % WT Binding: 102 % of WT
Human CD33 V332A
  Mean % WT Binding: 91.6 % of WT
Human CD33 H339A
  Mean % WT Binding: 99.5 % of WT
Human CD33 F345A
  Mean % WT Binding: 102 % of WT
Human CD33 E336A
  Mean % WT Binding: 117 % of WT
Human CD33 T322A
  Mean % WT Binding: 111 % of WT
Human CD33 C325A
  Mean % WT Binding: 109 % of WT
Human CD33 G347A
  Mean % WT Binding: 85.9 % of WT
Human CD33 T356A
  Mean % WT Binding: 111 % of WT
Human CD33 N344A
  Mean % WT Binding: 88.1 % of WT
Human CD33 G318A
  Mean % WT Binding: 106 % of WT
Human CD33 L338A
  Mean % WT Binding: 107 % of WT
Human CD33 A341S
  Mean % WT Binding: 116 % of WT
Human CD33 V361A
  Mean % WT Binding: 99.4 % of WT
Human CD33 M334A
  Mean % WT Binding: 106 % of WT
Human CD33 S355A
  Mean % WT Binding: 105 % of WT
Human CD33 S351A
  Mean % WT Binding: 109 % of WT
Human CD33 Y340A
  Mean % WT Binding: 106 % of WT
Human CD33 P319A
  Mean % WT Binding: 100 % of WT
Human CD33 T363A
  Mean % WT Binding: 108 % of WT
Human CD33 D353A
  Mean % WT Binding: 94.4 % of WT
Human CD33 G327A
  Mean % WT Binding: 122 % of WT
Human CD33 E357A
  Mean % WT Binding: 104 % of WT
Human CD33 T331A
  Mean % WT Binding: 91.3 % of WT
Human CD33 E337A
  Mean % WT Binding: 116 % of WT
Human CD33 A328S
  Mean % WT Binding: 102 % of WT
Human CD33 D335A
  Mean % WT Binding: 117 % of WT
Human CD33 P330A
  Mean % WT Binding: 119 % of WT
Human CD33 R362A
  Mean % WT Binding: 119 % of WT
Human CD33 Q364A
  Mean % WT Binding: 109 % of WT
Human CD33 E321A
  Mean % WT Binding: 117 % of WT
Human CD33 K352A
  Mean % WT Binding: 113 % of WT
Human CD33 Y358A
  Mean % WT Binding: 110 % of WT
Human CD33 T320A
  Mean % WT Binding: 112 % of WT
Human CD33 T354A
  Mean % WT Binding: 111 % of WT
Human CD33 S342A
  Mean % WT Binding: 117 % of WT
Human CD33 E333A
  Mean % WT Binding: 108 % of WT
